Measured values from patent US20040001839A1, “Multimers - isolated molecules comprising epitopes containing sulfated moieties, antibodies to such epitopes, and uses thereof” (priority 2000, published 2004).

B1: S-S Y1 dimer: disulfide bridge dimer of Y1 scFv compared with CONY1 and Y1-IgG in Example 12 (protein)
scFv 1: MEVQLVESGGGVVRPGGSLRLSCAASGFTFDDYGMSWVRQAPGKGLEWVSGINWNGGSTGYADSVKGRFTISRDNAKNSLYLQMNSLRAEDTAVYYCARMRAPVIWGQGTLVTVSRGGGGSGGGGSGGGGSSELTQDPAVSVALGQTVRITCQGDSLRSYYASWYQQKPGQAPVLVIYGKNNRPSGIPDRFSGSSSGNTASLTITGAQAEDEADYYCNSRDSSGNHVVFGGGTKLTVLGGGGCKAK
scFv 2: B1 scFv 1
B2: CONY1: scFv derived from Y1 scFv, myc tag replaced by lysine, alanine, lysine (KAK); SEQ ID NO:204 (protein, listed as Homo sapiens)
scFv: MKYLLPTAAAGLLLLAAQPAMAEVQLVESGGGVVRPGGSLRLSCAASGFTFDDYGMSWVRQAPGKGLEWVSGINWNGGSTGYADSVKGRFTISRDNAKNSLYLQMNSLRAEDTAVYYCARMRAPVIWGQGTLVTVSRGGGGSGGGGSGGGGSSELTQDPAVSVALGQTVRITCQGDSLRSYYASWYQQKPGQAPVLVIYGKNNRPSGIPDRFSGSSSGNTASLTITGAQAEDEADYYCNSRDSSGNHVVFGGGTKLTVLGAAAKAK

Legend:
KG-1 cells [1] = assay: Radioreceptor binding assay with KG-1 cells; set-up: species or system human; conditions: 2 ng/tube 125I-Y1-IgG tracer
Protocol: The assay system involved the use of radioactive ligands that were prepared by iodination with ^125I using chloramine T on the Y1-IgG construct or the Bolton-Hunter (CONY1) reagent. The assay tubes contained 5×10^6 KG-1 cells per 0.2 ml and a labeled tracer with varying amounts of unlabeled competitor, in PBS+0.1% BSA, pH 7.4. After one hour incubation with agitation at 4° C., the cells were thoroughly washed with cold buffer and taken for radioactivity counting.
For the radio receptor binding assay (RRA), 2 ng/tube of ^125I-Y1-IgG was used, and competition was performed with each of the three molecules. […] A rough estimate of the affinity of the Y1-IgG in this experiment is 2×10^−8 M. The corresponding affinity of the dimer is, therefore, 4×10^−8 M.
In a second RRA using labeled CONY1, a 100 ng/tube of ^125I-Y1-IgG was used, and competition was performed with each of the three molecules. […] A rough estimate of the affinity of CONY 1 in this experiment is 10^−6M. The corresponding affinity of the dimer is, therefore, 5×10^−8 M.

MOLT-4 cells = assay: T-ALL (MOLT4) model in SCID mice; type: in vivo
Protocol: The in vivo mouse model for T-ALL uses SCID mice (Jackson Laboratories) injected with MOLT4 cells derived from a T cell leukemia patient.
In one experiment, SCID mice were pretreated with 100 mg/kg Cytoxan (CTX, Cyclophosphamid for injection, Mead Johnson). Eleven days after CTX injection, MOLT-4 cells were injected intravenously into the tail vein. Control mice were injected with PBS alone. One week post-MOLT-4 injection mice were injected with CONY1-Doxorubicin, which is a conjugate between scFv CON Y1 polypeptide, having KAK amino acid residues at its carboxy end and doxorubicin via a short organic linker; CONY1, which is a scFv antibody fragment derived from Y1 scFv in which the DNA sequences encoding the myc tag of Y1 were deleted and replaced with a DNA sequence encoding the amino acids lysine, alanine, lysine (KAK); or free Doxorubicin. The mice were injected three times per week for three weeks. […] (Table M).
Mice started to die 32 days post cell inoculation, and the surviving mice were sacrificed at this time. Bone marrow cells were analyzed by flow cytometry using anti-human CD44-FITC and Y1-Biotin/SAV-PE. Blood samples from several animals were monitored for platelet and white blood cell count. Livers were weighted and examined for tumor appearance. Other organs were also examined for tumor appearance.
In a second experiment, SCID mice were i.v. injected with 2×10^7 MOLT-4 cells/mouse, 5 days post treatment with cyclophosphamide. Anti-cancer agents or PBS (negative control animals) were injected i.v. three times/week from day 5 post MOLT-4 cells injection and onward. On day 35, blood was drawn from the animals, the animals were sacrificed, and their livers were excised and weighed. In the untreated, PBS-treated MOLT-4 cell-bearing animals, the liver presented with a very massive tumor growth, and its size was increased 2-3-fold relative to PBS control uninfected animals. In this experiment, there were five treatment groups:
In parallel, portions of liver tissue were taken for histology and cell harvesting for FACS analysis. The survival rate of another group of treated animals was recorded relative to that of control untreated mice.
In a third experiment, using the identical SCID/MOLT-4 protocol, there were 6 groups: […]

KG-1 cells [2] = assay: AML KG-1 model in NOD/SCID mice; type: in vivo
Protocol: The in vivo mouse model for human AML uses SCID/NOD mice (Jackson Laboratories) inoculated with KG-1 cells derived from a human AML cell line.
In a first experiment, NOD/SCID mice were pretreated with 100 mg/kg CYTOXAN®. Four days post CYTOXAN® injection, KG-1 cells were injected intravenously into the tail vein of six groups of mice. (Table N, Groups 2 and 5-9). One group of mice (Table N, Group 1) was injected with PBS alone (control). [273.][273.]
Beginning 19 days post KG-1 injection mice were treated with: CONY1, Doxorubicin, CONY1-Doxorubicin conjugate, or Mylotarg®. (Mylotarg® is a monoclonal antibody (anti CD33) conjugated chemically to calcheamicin recently approved by the FDA for treatment of AML patients age 60 and over in a first relapse.) Mice were treated once or three times per week for three weeks. […]
Mice were sacrificed from 60 to 65 days post cell injection. Bone marrow and blood samples were analyzed by flow cytometry using mouse anti human CD34-FITC (IQP 144F) (or anti CD44-FITC (MCA89F, Serotec)) and Y1-Biotin/SAV-PE. […]
An additional experiment was performed in which SCID-NOD mice were i.v. injected with 3×10^4 MOLT-4 cells/mouse 5 days post treatment with cyclophosphamide. […] Bone marrow was extracted and analyzed by FACS analysis using a commercially available antiCD44 antibody for the detection of MOLT-4 cells in the mice bone marrow cell population.

[3] = Pharmacokinetics of 125I-CONY1 after intravenous injection in mice; type: in vivo, Balb-C mice; conditions: 15 μg per mouse i.v.; plasma TCA-precipitable radioactivity, two-compartment model
Protocol: Two to four mice were used per time point. […] Organ/tissue total and specific radioactivity values were calculated.

[4] = molecular target: T1, GPIb (glycocalicin) derived from platelets (Homo sapiens, UniProt P07359); assay: ELISA of monomer and dimer to GPIb (glycocalicin); type: binding
T1 construct: glycocalicin (soluble, extracellular fragment of GPIbα); from tissue; host or cells: human platelets
Protocol: An ELISA assay was performed to ascertain the differences in binding between the monomer (the Y1 scFv-also known as Y1-kak) and the dimer Y1-cys-kak (the cysteine dimer) for antigen GPIb (glycocalicin) derived from platelets. A polyclonal anti single chain antibody and/or a novel polyclonal anti-VL (derived from rabbits) and anti-rabbit HRP, were used to detect the binding to GPIb. […] For instance, to reach 0.8 OD units 12.8 μg/ml of monomer was used compared to only 0.1 μg/ml of dimer.
100 ml of purified glycocalicin was incubated in a 96 flat well maxisorp plates, overnight at 4 degrees celsius. The plate was washed with PBST (PBS+0.05% tween) 3 times, then […] of PBST-milk (PBST+2% Non fat milk), for 1 hr at room temperature. The plate was washed with PBST, and the monomer or dimer (100 ml) was added in PBST-milk at different concentrations for 1 hr at room temp. Then the plate was washed and anti-VL polyclonal (derived from immunized rabbits with VL derived from Y1) (1:100 diluted in PBST-milk) was added for an hour. The plate was washed and anti-rabbit HRP was added for an additional hour. The plate was washed 5 times and 100 μl TMB substrate was added for approximately 15 minutes then 100 μl of 0.5 H2SO4 was added to stop the reaction. The optical density of the plate was measured at 450 nm in an ELISA reader.

Row | Molecule | affinity relative to the full Y1 antibody (KG-1 cells [1]) | liver weight versus mice treated with free Doxorubicin or left untreated (MOLT-4 cells; first experiment, 3 times per week for three weeks, sacrificed 32 days post cell inoculation) | tumor growth in the liver (liver weights, day 35) (MOLT-4 cells; second experiment, 75 μg/mouse i.v. three times/week from day 5) | tumor growth (based on liver weights) (MOLT-4 cells; third experiment, 75 μg/mouse) | survival (MOLT-4 cells; three groups with continued treatment) | percentage of KG-1 cells in bone marrow (KG-1 cells [2]; KG-1 cells incubated in vitro with scFv (0.25 mg/10^8 cells) before injection (groups 3 and 4)) | development of the malignancy (cancer cells in bone marrow, day 60) (KG-1 cells [2]; additional experiment, 75 μg/mouse i.v. three times/week from day 14) | half-life of blood clearance, second compartment [3] [h] | concentration used to reach 0.8 OD units [4] [µg/mL]
1 | B1 | twofold lower |  |  |  |  |  |  |  | 
2 | B2 |  | weighted significantly less | markedly inhibited tumor growth in the liver | inhibited tumor growth | prolonged | significantly lower percentage of KG-1 cells | no effect | 3.17 | 12.8
